# Literature values, collected in paper PMC9696605 (Viruses, 2022).
# Target: Fyn-SH3 (Homo sapiens, UniProt P06241)
# Details: phosphorylated MBP
# Sequence of Fyn-SH3 (P06241 with tags, fused parts or gaps): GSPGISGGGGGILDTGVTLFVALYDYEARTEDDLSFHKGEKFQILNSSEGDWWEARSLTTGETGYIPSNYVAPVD
molecule,measurement,value
"phospho-MBP: phosphorylated myelin basic protein (protein, UniProt P02687 1-169, looked up, phosphorylated, phosphorylated myelin basic protein) Myelin basic protein: AAQKRPSQRSKYLASASTMDHARHGFLPRHRDTGILDSLGRFFGSDRGAPKRGSGKDGHHAARTTHYGSLPQKAQGHRPQDENPVVHFFKNIVTPRTPPPSQGKGRGLSLSRFSWGAEGQKPGFGYGGRASDYKSAHKGLKGHDAQGTLSKIFKLGGRDSRSGSPMARR",Effect of MBP phosphorylation on interaction with Fyn-SH3,phosphorylation weakens the interaction
